In patent US20110165660A1, “ENGINEERED MICROORGANISMS WITH ENHANCED FERMENTATION ACTIVITY” (VERDEZYNE, INC., priority 2009, published 2011):

Experiments:
[1] = system: xylose; assay: In vitro xylose isomerase activity assay on soluble whole cell extract (sorbitol dehydrogenase/NADH coupled, A340; Km, specific activity); format: biochemical, Saccharomyces cerevisiae
Method: […] Louis, Mo.), and about 2 U sorbitol dehydrogenase (Roche) at about 30° C. […] A Beckman DU-800 was utilized with an Enzyme Mechanism software package (Beckman Coulter, Inc.), and the change in the A340 was monitored for 2-3 minutes.
(§1) Approximately 20 μg of soluble whole cell extract from each transformed cell line, prepared using Y-PER plus reagent as described above, was incubated in a solution containing about 100 mM Tris, pH 7.5, 10 mM MgCl ? 2, 0.15 mM NADH (Sigma, St. Louis, Mo.), and 2 U Sorbitol Dehydrogenase (SDH) (Roche, Indianapolis, Ind.) at about 30° C. […] A Beckman DU-800 spectrophotometer was utilized with an Enzyme Mechanism software package (Beckman Coulter, Inc, Brea, Calif.), and the change in the A340 was monitored for 2-3 minutes.
as §1, with “line was” for “line,”, “above” for “above,”, “MgCl2,” for “MgCl ? 2,”, “sorbitol dehydrogenase” for “Sorbitol Dehydrogenase”
as §1, with “line was” for “line,”, “above” for “above,”

[2] = system: xylose isomerase activity; assay: Heterologous xylose isomerase expression in engineered yeast (active yes/no); details: xylose isomerase of the donor organism expressed in engineered yeast (S. cerevisiae)
[3] = Western blot (anti-6xHis) of EDD and EDA expression in yeast, soluble/insoluble extract; parameters: species or system Saccharomyces cerevisiae; details: C-terminal HIS tag, S. cerevisiae BY4742; total crude and solubilized extract; FIGS. 13A and 13B
Method: Transformation of the p426GPD plasmids containing an edd or an eda variant gene into yeast strain BY4742 was accomplished using the Zymo Research frozen-EZ yeast transformation II kit according to the manufacturer's protocol. The transformed BY4742 cells were selected by growth on a synthetic dextrose medium (SD) (0.67% yeast nitrogen base-2% dextrose) containing complete amino acids minus uracil (Krackeler Scientific Inc). Plates were incubated at about 30° C. for about 48 hours. Transformant colonies for each edd and eda variant were inoculated onto 5 ml of SD minus uracil medium and cells were grown at about 30° C. and shaken at about 250 rpm for about 24 hours. Cells were harvested by centrifugation at 1000×g for about 5 minutes, after which protein crude extract was prepared with Y-PER Plus (Thermo Scientific) according to the manufacturer's instructions. Whole cell extract protein concentrations were determined using the Coomassie Plus Protein Assay (Thermo Scientific) according to the manufacturer's directions. For each edd and eda variant His-tagged construct, about 10 μg of soluble and insoluble fractions were loaded on 4-12% NuPAGE Novex Bis-Tris protein gels (Invitrogen) and proteins were analyzed by western using anti-(H is)6 (SEQ ID NO: 138) mouse monoclonal antibody (Abcam) and HRP-conjugated secondary antibody (Abcam). […]

[4] = system: 6-phosphogluconate; assay: EDA activity assay: S. cerevisiae EDA extracts with saturating E. coli EDD extract, LDH/NADH coupled; format: biochemical, Saccharomyces cerevisiae
Method: EDA extracts were prepared using the following protocol.
Grow 5 ml LB-Kan preps of BF1055 (BL21/DE3 with pET26b empty vector) and BF1706 (BL21DE3 with pET26b+E. coli EDD).
Grow 50 ml LB-Kan prep of BF1055, 2% (v/v) inoculate.
Grow 50 ml prep of BF1706 using Novagen's Overnight Express (46.45 ml LB-Kan, 1 ml solution 1, 2.5 ml solution 2, 50 μl solution 3, 5 μl of 1M MnCl2, 50 μl of 0.5 M FeCl2), 2% (v/v) inoculate.
Inoculate to OD600 of 0.2.
EDD extractions (adapted from Chemyan et al, Protein Science 16:2368-2377, 2007): • 1) Pellet cells in 50 ml conical tubes, 4° C., 3,000 rpm, 10 mins, discard supernatant. • 2) Resuspend in 2 ml degassed PDGH buffer (20 mM MES pH 6.5, 30 mM NaCl, 5 mM MnCl2, 0.5 mM FeCl2, 10 mM 2-mercaptoethanol, 10 mM cysteine, sparged with nitrogen gas). Move to hungate tube. • 3) Add 0.1% Triton X-100, 10 ng/ml DNase, 10 μg/ml PMSF, 10 μg/ml TAME (Nα-(p-toluene sulfonyl)-L-arginine methyl ester), 100 μg/ml lysozyme. • 4) Sparge hungate tube with nitrogen gas, cap and seal. […]
Each reaction contains 50 mM Tris-HCl, pH 7, 10 mM MgCl2, 0.15 mM NADH, 15 μg LDH, saturating amounts of EDD determined empirically (usually ˜100 μg), 1-50 μg EDA (depending on level of activity), and 1 mM 6-phosphogluconate. Reactions are started by the addition of 6-phosphogluconate and monitored for 5 mins at 30° C.

In the case of “Piromyces: xylose isomerase from Piromyces strain E2 (SEQ ID NO: 35)”, the “Specific Activity” value ([1]; soluble whole cell extract, pH 7.5, 30° C.) is reported as 2.02 µmol/min/mg and the “Active? (yes/no)” value [2] is reported as “Yes”.

B1: PAO1 EDD: phosphogluconate dehydratase (edd) from P. aeruginosa PAO1 (SEQ ID NO: 70) (protein, listed as Pseudomonas aeruginosa)
chain: MHPRVLEVTRRIQARSAATRQRYLEMVRAAASKGPHRGTLPCGNLAHGVAACGESDKQTLRLMNQANVAIVSAYNDMLSAHQPFERFPGLIKQALHEIGSVGQFAGGVPAMCDGVTQGEPGMELSLASRDVIAMSTAIALSHNMFDAALCLGVCDKIVPGLLIGSLRFGHLPTVFVPAGPMPTGISNKEKAAVRQLFAEGKATREELLASEMASYHAPGTCTFYGTANTNQLLVEVMGLHLPGASFVNPNTPLRDELTREAARQASRLTPENGNYVPMAEIVDEKAIVNSVVALLATGGSTNHTLHLLAIAQAAGIQLTWQDMSELSHVVPTLARIYPNGQADINHFQAAGGMSFLIRQLLDGGLLHEDVQTVAGPGLRRYTREPFLEDGRLVWREGPERSLDEAILRPLDKPFSAEGGLRLMEGNLGRGVMKVSAVAPEHQVVEAPVRIFHDQASLAAAFKAGELERDLVAVVRFQGPRANGMPELHKLTPFLGVLQDRGFKVALVTDGRMSGASGKVPAAIHVSPEAIAGGPLARLRDGDRVRVDGVNGELRVLVDDAEWQARSLEPAPQDGNLGCGRELFAFMRNAMSSAEEGACSFTESLNGWR
With B1 the “expression and solubility (western)” value [3] was “expressed and soluble”.

B2: R. flavefaciens, FD-1 XI: xylose isomerase from R. flavefaciens FD-1 (SEQ ID NO: 110) expressed in S. cerevisiae (protein, listed as Ruminococcus flavefaciens)
chain: MEFFKNISKIPYEGKDSTNPLAFKYYNPDEVIDGKKMRDIMKFALSWWHTMGGDGTDMFGCGTADKTWGENDPAARAKAKVDAAFEIMQKLSIDYFCFHDRDLSPEYGSLKDTNAQLDIVTDYIKAKQAETGLKCLWGTAKCFDHPRFMHGAGTSPSADVFAFSAAQIKKALESTVKLGGTGYVFWGGREGYETLLNTNMGLELDNMARLMKMAVEYGRSIGFKGDFYIEPKPKEPTKHQYDFDTATVLGFLRKYGLDKDFKMNIEANHATLAQHTFQHELCVARTNGAFGSIDANQGDPLLGWDTDQFPTNIYDTTMCMYEVIKAGGFTNGGLNFDAKARRGSFTPEDIFYSYIAGMDAFALGYKAASKLIADGRIDSFISDRYASWSEGIGLDIISGKADMAALEKYALEKGEVTDSISSGRQELLESIVNNVIFNL
With B2 the “activity (slope) at saturating xylose” value ([1]; 100 μg total soluble crude extract, 500 mM xylose, FIG. 25) was “highest activity of the candidates tested” and the “specific activity relative to native XI control” value ([1]; xylose concentrations between 40 and 500 nM) was “greater than 2 fold”.

B3: E. coli EDA: 2-keto-3-deoxygluconate-6-phosphate aldolase (eda) from E. coli expressed in yeast (protein, UniProt P0A955 1-213, looked up)
KHG/KDPG aldolase: MKNWKTSAESILTTGPVVPVIVVKKLEHAVPMAKALVAGGVRVLEVTLRTECAVDAIRAIAKEVPEAIVGAGTVLNPQQLAEVTEAGAQFAISPGLTEPLLKAATEGTIPLIPGISTVSELMLGMDYGLKEFKFFPAEANGGVKALQAIAGPFSQVRFCPTGGISPANYRDYLALKSVLCIGGSWLVPADALEAGDYDRITKLAREAVEGAKL
For B3, the “EDA activity relative to the EDA from P. aeruginosa” value ([4]; EDA expressed in S. cerevisiae, saturating E. coli EDD) was “approximately 16 fold”, the EDA activity ranking ([4]; repeat: 100 μg EDD and 25 μg EDA cell lysates (5 μg E. coli EDA), FIG. 24) was “most active” and the “expression and solubility (western)” value [3] was “expressed and soluble”.
